According to US20250002886:

System: T1, MG3-6/3-4 chimera (MG3-6 1-742 + MG3-4 743-1134) (synthetic construct)
T1 sequence: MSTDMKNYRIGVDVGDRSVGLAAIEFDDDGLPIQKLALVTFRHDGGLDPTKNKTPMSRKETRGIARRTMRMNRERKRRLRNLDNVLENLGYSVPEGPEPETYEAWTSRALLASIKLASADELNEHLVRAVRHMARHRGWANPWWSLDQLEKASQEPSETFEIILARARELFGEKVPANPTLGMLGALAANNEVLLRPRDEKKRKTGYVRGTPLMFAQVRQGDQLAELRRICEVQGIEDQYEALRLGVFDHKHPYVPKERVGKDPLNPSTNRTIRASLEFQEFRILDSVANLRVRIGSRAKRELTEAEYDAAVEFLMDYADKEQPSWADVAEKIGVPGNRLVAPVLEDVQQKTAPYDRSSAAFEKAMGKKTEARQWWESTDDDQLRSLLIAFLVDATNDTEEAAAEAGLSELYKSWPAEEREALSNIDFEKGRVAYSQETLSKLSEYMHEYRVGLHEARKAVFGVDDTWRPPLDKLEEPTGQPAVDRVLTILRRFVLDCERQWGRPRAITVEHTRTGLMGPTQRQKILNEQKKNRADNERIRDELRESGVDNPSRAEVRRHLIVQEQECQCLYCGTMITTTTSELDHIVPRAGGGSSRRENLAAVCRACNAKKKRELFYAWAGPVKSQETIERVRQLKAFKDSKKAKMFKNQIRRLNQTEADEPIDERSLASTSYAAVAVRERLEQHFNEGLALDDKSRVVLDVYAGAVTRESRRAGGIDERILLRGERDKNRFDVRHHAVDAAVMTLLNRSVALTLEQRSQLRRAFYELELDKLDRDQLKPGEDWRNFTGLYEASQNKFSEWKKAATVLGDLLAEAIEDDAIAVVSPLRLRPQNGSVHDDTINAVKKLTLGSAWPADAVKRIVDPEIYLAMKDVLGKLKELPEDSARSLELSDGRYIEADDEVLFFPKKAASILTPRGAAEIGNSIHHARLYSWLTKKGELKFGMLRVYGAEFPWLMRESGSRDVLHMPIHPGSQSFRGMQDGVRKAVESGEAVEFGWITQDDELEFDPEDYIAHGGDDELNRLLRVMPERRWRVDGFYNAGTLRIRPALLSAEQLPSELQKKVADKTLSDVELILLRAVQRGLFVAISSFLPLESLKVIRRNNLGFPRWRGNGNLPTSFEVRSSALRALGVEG
Test: cell_activity
Conditions: 2'-OMe and PS at termini; Hep3B; 25.0 % in PHH; PAM NNAAA(A/T)N

“CCAUCUAUCAGCUGGGAAGAUAGUUGAGAAUCGAAAGAUUCUUAAUAAGGCAUCCUUCCGAUGCUGACUUCUCACCGUCCGUUUUCCAAUAGGAGCGGGCGGUAUGUUUU / CCATCTATCAGCTGGGAAGATATCAAATG / CATTTGATATCTTCCCAGCTGATAGATGG [hH364-32 sgRNA ; human HAO1 hH364-32 target]” was tested, and the activity was 60 % indel.
